Changes are numbered by the printed parent chain. Values belong to the binder of their own block, whether it stands above or below them.
Tests used:
mouse IL-2 receptor α [1] = molecular target: T1, mouse IL-2 receptor α (mouse, UniProt P01590 22-268); assay: NanoLuc on-cell binding, mouse IL-2Rα-expressing 293T, ratio 293Ta/293T, 10 nM
T1 construct: whole, on cells; also called mouse IL-2Rα; CD25
T1 sequence (looked up): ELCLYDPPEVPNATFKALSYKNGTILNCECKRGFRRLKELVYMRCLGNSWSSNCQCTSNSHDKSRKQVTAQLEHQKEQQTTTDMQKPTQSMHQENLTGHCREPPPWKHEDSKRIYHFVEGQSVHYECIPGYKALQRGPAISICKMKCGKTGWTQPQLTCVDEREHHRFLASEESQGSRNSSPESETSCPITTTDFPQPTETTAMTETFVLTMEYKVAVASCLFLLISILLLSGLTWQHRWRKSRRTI
Procedure: (§1) Next, IL-2 receptor α binding capability on cells (on-cell receptor binding) was measured. Specifically, 293T cells were obtained from the RIKEN Cell Bank (RCB2202). Human and mouse IL-2 receptor α-expressing 293T (293Ta) was established as cells stably expressing the IL-2 receptor α in 293T through use of lentiviral vectors (pSIN-EF-RfA2-1-human IL-2Ra and pSIN-EF-RfA2-1-mouse IL-2Ra) constructed respectively with human and mouse IL-2 receptor α-chain genes (NCBI Reference Sequence: NM_000417.2 and NM_008367.3) as cassettes. 293T and human or mouse 293Ta were allowed to adhere to a 24 wel cell culture plate (Techno Plastic Products AG, #92424). After that, a suspension (10 nM) of NanoLuc (trademark) luciferase sequence (Promega Corporation, USA)-fused mature stable mutant human MK-4-IL-2 (MK-4, pcDNA4-MK-4-NLuc, corresponding to a comparative example), mature stable mutant human MK-6-IL-2 (MK-6, pcDNA4-MK-6-NLuc), mature stable mutant human IL-2 (MK-14, pcDNA4-MK-14-NLuc, IL-2 positive control), or mature stable mutant human MK-15-IL-2 (MK-15, pcDNA4-MK-15-NLuc) was added, and the mixture was subjected to a reaction by being left at rest at 4° C. for 1 hour. The cells were washed, followed by quantification. The binding capability of mutant IL-2 for the α-subunit is shown as a numerical value for a ratio between amounts bound to 293Ta and 293T (293Ta/293T). […]

human IL-2 receptor α = molecular target: T2, human IL-2 receptor α (human, UniProt P01589 22-272); assay: NanoLuc on-cell binding, human IL-2Rα-expressing 293T, ratio 293Ta/293T
T2 construct: whole, on cells; also called IL-2Rα; CD25
T2 sequence (looked up): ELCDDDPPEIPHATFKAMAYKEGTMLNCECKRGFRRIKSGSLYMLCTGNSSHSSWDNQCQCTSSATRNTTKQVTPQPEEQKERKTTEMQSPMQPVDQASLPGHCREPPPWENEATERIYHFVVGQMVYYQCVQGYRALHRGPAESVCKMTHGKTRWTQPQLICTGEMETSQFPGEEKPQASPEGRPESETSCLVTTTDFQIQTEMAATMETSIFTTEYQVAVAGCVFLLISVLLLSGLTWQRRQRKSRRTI
Procedure: as §1

mouse IL-2 receptor α [2] = molecular target: T1, mouse IL-2 receptor α; assay: NanoLuc on-cell binding, mouse IL-2Rα-expressing 293T, ratio 293Ta/293T
Procedure: as §1

binding result (mouse IL-2 receptor α [1]): binds
B1: NanoLuc luciferase sequence-fused mature stable mutant human MK-4-IL-2 (ligand, not shown: large carriers)
chain: APASSSTKKTQLQLEHLLLDLQMILNGINNYKNPALTAMLTFKFYMPKKATELKHLQCLEEELKPLEEVLNLAQSKNFHLRPRDLISNINVIVLELKGSETTFMCEYADETATIVEFLNRWITFAQSIISTLT
notes: also called pcDNA4-MK-4-NLuc

binding result (human IL-2 receptor α): no binding (tested: 10 nM)
B2: NanoLuc luciferase sequence-fused mature stable mutant human MK-6-IL-2 (ligand, not shown: large carriers)
chain: B1 chain with K43A, Y45A
notes: also called pcDNA4-MK-6-NLuc

binding result (mouse IL-2 receptor α [2]): no binding (tested: 10 nM) | binding result (human IL-2 receptor α): no binding (tested: 10 nM)
B3: NanoLuc luciferase sequence-fused mature stable mutant human MK-15-IL-2 (ligand, not shown: large carriers)
chain: B1 chain with F42A, Y45A
notes: also called pcDNA4-MK-15-NLuc
